In patent US20250052751A1, “COMPOSITIONS AND METHODS FOR DIAGNOSING AUTOIMMUNE AQUAPORINOPATHY” (The Regents of the University of California, priority 2023, published 2025) one finds IC50 data, which are given here for 1 substance.

The experiment addresses MHC class II I-A^b molecules purified by affinity chromatography (mouse) (UniProt P14434). In words: competitive peptide binding assay on purified I-Ab.

What is called IC50 is the concentration that inhibits the measured activity by half. Low readings indicate greater potency in that assay, high ones weaker potency in that assay. For the substance MOG p35-55 (from UniProt Q61885 63-83), the IC50 worked out at 387 nM.
